{
  "source": "patent US9464326B2",
  "about": "“Total and phosphorylated IL-1 receptor-associated kinase-1 and IL-1 receptor-associated kinase-4 as a biomarker for cancer progression and chemotherapy resistance” (University of Maryland, Baltimore, priority 2012, dated 2016)",
  "assay_type_in_all_cases": "cell-based, human",
  "key": {"MO": {"test_system": "MO", "experiment": "Proliferation (3H-thymidine) of MO", "conditions": "3H-thymidine uptake, 72 h", "text": "(§1) CCRF-CEM, CEM/C1, CEM/C2, CEM-C7, Jurkat, Loucy, Molt-4, HSB-2, SUP-T1, Hut 78, HH, Hut 102, MO, and H9 T-leukemia and T-lymphoma cell lines were purchased from the American Type Culture Collection (Manassas, Va., USA). All of the cell lines were initially expanded and cryopreserved within one month of receipt. Cells were typically used for 6 months at which time a fresh vial of cryopreserved cells was used. Total T cells from healthy donors were isolated via negative selection followed by positive selection using a CD3+ selection kit (Invitrogen, Carlsbad, Calif.). T cells were isolated from patients with T-ALL bone marrow or peripheral blood samples containing more than 70% leukemia cells using a CD2+ isolation kit (STEMCELL Technologies, Vancouver, Canada). All tissues were collected under institutional IRB-approved protocols and all participants gave written informed assent/consent. For in vitro experiments, T-ALL cells were cultured in AIM-V medium supplemented with 20% human AB serum in the presence of recombinant human stem cell factor (50 ng/mL; Amgen, Thousand Oaks, Calif.), insulin (20 nM; Sigma-Aldrich, St Louis, Mo., USA) and IL-7 (50 ng/mL; R&D Systems, Minneapolis, Minn., USA). […]\n(§2) Cells were cultured in a 96-well plate (Corning Costar, Corning, N.Y., USA) with various concentrations of TLR ligands 1-9, starting at 10 μg/ml, in a final volume of 200 ul. […] After this time point, cells were harvested with a Packard Filter-Mate-96 cell harvester (Perkin Elmer, Waltham, Mass., USA) and counted on Packard Top Count-NXT (Perkin Elmer, Waltham, Mass., USA). Results were expressed as average counts per minute (cpm). […] Forty-eight hours later, proliferation (±SD) was determined by ^3H-thymidine incorporation. Alternatively, apoptosis was measured by flow cytometry after staining cells with Annexin-V (BD Pharmingen, San Diego, Calif., USA) and propidium iodide (Sigma). Cell number was counted under microscopy by staining cells with trypan blue. […]"}, "CCRF-CEM": {"test_system": "CCRF-CEM", "experiment": "Proliferation (3H-thymidine) of CCRF-CEM", "conditions": "3H-thymidine uptake, 72 h", "text": "(§3) CCRF-CEM, CEM/C1, CEM/C2, CEM-C7, Jurkat, Loucy, Molt-4, HSB-2, SUP-T1, Hut 78, HH, Hut 102, MO, and H9 T-leukemia and T-lymphoma cell lines were purchased from the American Type Culture Collection (Manassas, Va., USA). All of the cell lines were initially expanded and cryopreserved within one month of receipt. Cells were typically used for 6 months at which time a fresh vial of cryopreserved cells was used. Total T cells from healthy donors were isolated via negative selection followed by positive selection using a CD3+ selection kit (Invitrogen, Carlsbad, Calif.). T cells were isolated from patients with T-ALL bone marrow or peripheral blood samples containing more than 70% leukemia cells using a CD2+ isolation kit (STEMCELL Technologies, Vancouver, Canada). All tissues were collected under institutional IRB-approved protocols and all participants gave written informed assent/consent. For in vitro experiments, T-ALL cells were cultured in AIM-V medium supplemented with 20% human AB serum in the presence of recombinant human stem cell factor (50 ng/mL; Amgen, Thousand Oaks, Calif.), insulin (20 nM; Sigma-Aldrich, St Louis, Mo., USA) and IL-7 (50 ng/mL; R&D Systems, Minneapolis, Minn., USA). In other experiments, protein lysate was collected using the Full Moon Biosystems (Sunnyvale, Calif., USA) buffer prior to protein examination by western blot or protein array.\n(§4) Cells were cultured in a 96-well plate (Corning Costar, Corning, N.Y., USA) with various concentrations of TLR ligands 1-9, starting at 10 μg/ml, in a final volume of 200 ul. TLR ligands were diluted 2-fold. Cell lines (25-40×10^3/well) were cultured for 54 hours, whereas fresh patient-derived T-ALL cells (200×10^3/well) were cultured for 30 hours prior to adding [^3H]-thymidine for 18 hours. After this time point, cells were harvested with a Packard Filter-Mate-96 cell harvester (Perkin Elmer, Waltham, Mass., USA) and counted on Packard Top Count-NXT (Perkin Elmer, Waltham, Mass., USA). Results were expressed as average counts per minute (cpm). In some experiments CCRF-CEM cells were pre-treated with TLR1-TLR2 ligand (Pam3CysK4; 2.5 ug/ml) for 48 hrs, washed, and then cultured in the presence of varying concentrations of FBS. Forty-eight hours later, proliferation (±SD) was determined by ^3H-thymidine incorporation. Alternatively, apoptosis was measured by flow cytometry after staining cells with Annexin-V (BD Pharmingen, San Diego, Calif., USA) and propidium iodide (Sigma). Cell number was counted under microscopy by staining cells with trypan blue.\n(§5) The following TLR ligands were purchased from Invivogen (San Diego, Calif., USA): tripalmitoyl-S-(bis(palmitoyloxy)propyl)-Cys-Ser-(Lys)3-Lys (TLR1-2); Poly I:C (TLR3); ultrapure S. Minnesota Lipopolysaccharide (TLR4); S. typhimurium flagellin (TLR5); FSL-1 (TLR2/6); Imiquimod (TLR7); ssRNA40/Lyovec (TLR8); CpG-ODN 2006 (TLR9)."}, "CEM-C1": {"test_system": "CEM-C1", "experiment": "Proliferation (3H-thymidine) of CEM-C1", "conditions": "3H-thymidine uptake, 72 h", "text": "as §3\nas §4, with “blue. […]” for “blue.”"}, "CEM-C2": {"test_system": "CEM-C2", "experiment": "Proliferation (3H-thymidine) of CEM-C2", "conditions": "3H-thymidine uptake, 72 h", "text": "as §3\nas §4, with “blue. […]” for “blue.”"}, "Loucy": {"test_system": "Loucy", "experiment": "Proliferation (3H-thymidine) of Loucy", "conditions": "3H-thymidine uptake, 72 h", "text": "as §3\nas §4, with “blue. […]” for “blue.”"}, "H9": {"test_system": "H9", "experiment": "Proliferation (3H-thymidine) of H9", "conditions": "H9", "text": "as §3, §4, §5"}, "CEM-C7": {"test_system": "CEM-C7", "experiment": "Proliferation (3H-thymidine) of CEM-C7", "text": "as §3, §4, §5"}, "Molt-4": {"test_system": "Molt-4", "experiment": "Proliferation (3H-thymidine) of Molt-4", "conditions": "3H-thymidine uptake, 72 h", "text": "as §1, §2"}, "[1]": {"test_system": "Primary T-cells Activated", "experiment": "Proliferation (3H-thymidine) of activated primary T-cells", "conditions": "Primary T-cells, Activated", "text": "as §3, §4, §5"}, "Hut 102": {"test_system": "Hut 102", "experiment": "Proliferation (3H-thymidine) of Hut 102", "conditions": "3H-thymidine uptake, 72 h", "text": "as §1, §2"}, "Hut-78": {"test_system": "Hut-78", "experiment": "Proliferation (3H-thymidine) of Hut-78", "conditions": "3H-thymidine uptake, 72 h", "text": "as §1, §2"}, "A375 cells": {"test_system": "A375 cells", "experiment": "Western blot of IRAK phosphorylation in A375", "conditions": "48 hours", "protocol": "(§6) FIG. 22. Effects of TLR stimulation and cytokines on IRAK phosphorylation in melanoma cells. (A) A375 cells were cultured in the presence of anti-IL-18, anti-CXCL-1, (R&D Systems), anti-IL-1 (BioLegend), or mouse IgG (Sigma-Aldrich) all at 10 μg/ml. Forty-eight hours later the levels of the indicated proteins were determined by western blot. (B) A375 cells, which express p-IRAK-1 and p-IRAK-4, and G361 melanoma cells, which express very low levels of p-IRAK-1 (and express TLR5) were cultured in the presence of TLR1-TLR2 agonist (Pam3CysK4; 2.5 μg/ml) or TLR5 (flagellin; 100 ng/ml; InVivogen). Forty-eight hours later total protein was collected and the levels of the indicated proteins were examined by western blot.\n(§7) Total cell extracts were prepared from melanoma cells. […] Melanoma tissue arrays were purchased from US Biomax, Inc (Rockville, Md.). For immunohistochemical staining samples were stained with mouse monoclonal anti-human phosphor-IRAK.-4 antibody (Abnova; dilution, 3.5 μg/ml) or normal mouse serum. Tissue histology sections (5-μm-thick) were deparaffinized, hydrated, heated in boiling 10 mmol/L sodium citrate (pH 6.0), for antigen retrieval, for 30 min and washed in Tris buffer. Peroxide blocking was done with 3% […] in methanol at room temperature for 15 min, followed by 10% fetal bovine serum in TBS-t for 30 min at room temperature. Primary antibody incubation was done overnight at 4° C. Secondary antibody incubation with horse anti-mouse (1:200; Vector Laboratories, Burlingame, Calif.) was done for 1 hr, followed by application of diaminobenzidine chromogen for 5 min. The slides were then counterstained with hematoxylin and topped with a coverslip. IHC specimens were analyzed using “quick score” system in which the intensity of the immunohistochemical reaction was scored by multiplying the intensity 1 (weak), 2 (moderate), and 3 (strong) and the proportion of cells staining positively 0 (<10%), 1 (10-25%), 2 (26-50%), 3 (51-75%) or 4 (>75%)."}, "Jurkat": {"test_system": "Jurkat", "experiment": "Proliferation (3H-thymidine) of Jurkat", "conditions": "3H-thymidine uptake, 72 h", "text": "as §3\nas §4, with “blue. […]” for “blue.”"}, "HSB-2": {"test_system": "HSB-2", "experiment": "Proliferation (3H-thymidine) of HSB-2", "text": "as §3, §4, §5"}, "SupT1": {"test_system": "SupT1", "experiment": "Proliferation (3H-thymidine) of SupT1", "conditions": "SupT1; 3H-thymidine uptake, 72 h", "text": "as §3, §4, §5"}, "HH": {"test_system": "HH", "experiment": "Proliferation (3H-thymidine) of HH", "conditions": "3H-thymidine uptake, 72 h", "text": "as §1, §2"}, "G361 melanoma cells": {"test_system": "G361 melanoma cells", "experiment": "Western blot of IRAK phosphorylation in G361", "conditions": "48 hours", "protocol": "as §6, §7"}, "Primary T-cells Non-Act": {"test_system": "Primary T-cells Non-Act", "experiment": "Proliferation (3H-thymidine) of non-activated primary T-cells", "conditions": "3H-thymidine uptake, 72 h", "text": "as §1, §2"}, "[2]": {"conditions": "Pam3CysK4 2.5 μg/ml or flagellin 100 ng/ml, FIG. 22B"}},
  "data": [
    {"molecule": "Flagellin: S. typhimurium flagellin, TLR5 ligand (Invivogen) (protein, UniProt P06179 2-495, looked up) Flagellin: AQVINTNSLSLLTQNNLNKSQSALGTAIERLSSGLRINSAKDDAAGQAIANRFTANIKGLTQASRNANDGISIAQTTEGALNEINNNLQRVRELAVQSANSTNSQSDLDSIQAEITQRLNEIDRVSGQTQFNGVKVLAQDNTLTIQVGANDGETIDIDLKQINSQTLGLDTLNVQQKYKVSDTAATVTGYADTTIALDNSTFKASATGLGGTDQKIDGDLKFDDTTGKYYAKVTVTGGTGKDGYYEVSVDKTNGEVTLAGGATSPLTGGLPATATEDVKNVQVANADLTEAKAALTAAGVTGTASVVKMSYTDNNGKTIDGGLAVKVGDDYYSATQNKDGSISINTTKYTADDGTSKTALNKLGGADGKTEVVSIGGKTYAASKAEGHNFKAQPDLAEAAATTTENPLQKIDAALAQVDTLRSDLGAVQNRFNSAITNLGNTVNNLTSARSRIEDSDYATEVSNMSRAQILQQAGTSVLAQANQVPQNVLSLLR", "values": [
      {"measurement": "Proliferative effects of TLR ligands", "setting": "MO", "value": "∘"},
      {"measurement": "Proliferative effects of TLR ligands", "setting": "CCRF-CEM", "value": "∘"},
      {"measurement": "Proliferative effects of TLR ligands", "setting": "CEM-C1", "value": "∘"},
      {"measurement": "Proliferative effects of TLR ligands", "setting": "CEM-C2", "value": "∘"},
      {"measurement": "Proliferative effects of TLR ligands", "setting": "Loucy", "value": "∘"},
      {"measurement": "Proliferative effects of TLR ligands", "setting": "H9; 3H-thymidine uptake, 72 h", "value": "− (reduced proliferation)"},
      {"measurement": "TLR ligand concentration in parentheses below the symbol", "setting": "H9; no unit in table (μg/ml)", "value": "(10)"},
      {"measurement": "Proliferative effects of TLR ligands", "setting": "CEM-C7; 3H-thymidine uptake, 72 h", "value": "− (reduced proliferation)"},
      {"measurement": "TLR ligand concentration in parentheses below the symbol", "setting": "CEM-C7; no unit in table (μg/ml)", "value": "(2.5)"},
      {"measurement": "Proliferative effects of TLR ligands", "setting": "Molt-4", "value": "∘"},
      {"measurement": "Proliferative effects of TLR ligands", "setting": "[1]; 3H-thymidine uptake, 72 h", "value": "+ (enhanced proliferation by 25% or greater)"},
      {"measurement": "TLR ligand concentration in parentheses below the symbol", "setting": "[1]; no unit in table (μg/ml)", "value": "(10)"},
      {"measurement": "Proliferative effects of TLR ligands", "setting": "Hut 102", "value": "∘"},
      {"measurement": "Proliferative effects of TLR ligands", "setting": "Hut-78", "value": "∘"},
      {"measurement": "p-IRAK-1 or p-IRAK-4 expression levels", "setting": "A375 cells; [2]", "value": "neither TLR-1-TLR2 agonist (Pam3CysK4), nor TLR5 (Flagellin) stimulation increased or induced"},
      {"measurement": "total and p-IRAK-4 levels", "setting": "A375 cells; flagellin 100 ng/ml", "value": "reduced"},
      {"measurement": "Proliferative effects of TLR ligands", "setting": "Jurkat", "value": "∘"},
      {"measurement": "Proliferative effects of TLR ligands", "setting": "HSB-2; 3H-thymidine uptake, 72 h", "value": "− (reduced proliferation)"},
      {"measurement": "TLR ligand concentration in parentheses below the symbol", "setting": "HSB-2; no unit in table (μg/ml)", "value": "(10)"},
      {"measurement": "Proliferative effects of TLR ligands", "setting": "SupT1", "value": "∘"},
      {"measurement": "Proliferative effects of TLR ligands", "setting": "HH", "value": "∘"},
      {"measurement": "p-IRAK-1 or p-IRAK-4 expression levels", "setting": "G361 melanoma cells; [2]", "value": "neither TLR-1-TLR2 agonist (Pam3CysK4), nor TLR5 (Flagellin) stimulation increased or induced"},
      {"measurement": "total and p-IRAK-4 levels", "setting": "G361 melanoma cells; flagellin 100 ng/ml", "value": "reduced"},
      {"measurement": "Proliferative effects of TLR ligands", "setting": "Primary T-cells Non-Act", "value": "∘"}
    ]}
  ]
}
